Data reported in patent US20250154284A1.

Target: MASP-2-T1 (aa 1-414) (human) (UniProt O00187)
Test: ELISA, antibody titrated on truncated human MASP-2 T1 (aa 1-414)

EC50 (read off the curve): 0.01 µg/mL
Substance: benchmark antibody narsoplimab
